Source: PMC4596477, “Interaction of Myosin Phosphatase Target Subunit (MYPT1) with Myosin Phosphatase-RhoA Interacting Protein (MRIP): A Role of Glutamic Acids in the Interaction” (PLoS ONE, 2015)

Columns and labels:
[1] = target: T1, MRIP^724-878 (Homo sapiens, UniProt Q6WCQ1); assay: AUC interaction of MYPT1 peptides (CC, LR and LR mutants) with MRIP^724-878; type: binding; conditions: s*lg(s*) graphs, pH 7.4, 20°C; for main peak position of mixture with MRIP^724-878: excess mutant LR peptide for R992D/R993D and E996K, 50 μM each for others; for binding affinity toward MRIP^724-878, LR mutants: MRIP^724-878 with mutant LR peptide, 50 μM each, compared with wild-type LR
T1 construct: MRIP^724-878 (residues 724–878; CC2-CC4); made in house; host or cells: Escherichia coli BL21 (DE3)
T1 sequence (Q6WCQ1 725-879): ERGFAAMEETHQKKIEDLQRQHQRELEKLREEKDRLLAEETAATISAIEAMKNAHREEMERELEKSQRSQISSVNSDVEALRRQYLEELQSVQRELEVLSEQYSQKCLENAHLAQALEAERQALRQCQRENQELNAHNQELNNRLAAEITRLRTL
Description: To determine the minimal MRIP-binding region of MYPT1, AUC was employed to examine interactions between sub-domains of CCLR, CC (residues 924–990) and LR (residues 991–1030) with MRIP^724-878 (Fig 4A). CC is the putative coiled coil domain and LR contains 16 upstream amino acid residues (residues 991–1006) in addition to the leucine repeat (residues 1007–1028). MRIP^724-878 was chosen because of its good fit to a single component, single-species model. […] Global fitting of the mixture to a two-component model produced a good fit and the RMSD of the fit was 0.010 (Fig 4B; Fitting of CC).
The coiled coil is a common protein-protein interaction domain. The MRIP peptides in this study have putative coiled coil domains and are α-helical. In contrast, the MYPT1 peptide, LR is not α-helical even though it contains the leucine repeat. Thus, we hypothesized that charged residues of MYPT1 might participate in the MYPT1/MRIP interaction with its leucine residues. We generated various LR peptides representing mutations in charged residues (Fig 6A) and examined their bindings to MRIP^724-878 (Fig 6B).
Fig 6 Glutamic acids within LR enhance the MRIP-binding affinity. (A) Amino acid sequences of the wild-type LR (WT-LR) and mutant LR peptides. Charged residues are in bold, the leucine repeat is in Italic, and substitution mutations are underlined. (B) Time derivative s*lg(s*) graphs: Line, MRIP^724-878 alone (50 μM); filled-in circles, original mixture of MRIP^724-878/each mutant LR peptide (50 μM each except for R992D/R993D and E996K whose mixtures consisted of excess amount of the mutant LR peptides); open circles, a three-fold dilution of the original mixture. The molar mass of the complex differs slightly from that of MRIP^724-878 dimer (37.9 kDa vs 37.4 kDa), and thus the shift in the main peak position is not easily discernable in many cases.
(§1) The cDNA fragment encoding MRIP peptides were amplified using a full-length MRIP cDNA as a template with the following primer pairs: MRIP^545-878, 5’-[…]/5’[…]; MRIP^724-878, 5’-[…]/5’-[…]; MRIP^724-837, 5’-[…]/5’-[…]. The PCR products were ligated into pCR2.1-TOPO using the TA cloning system and sequenced in both directions. The IMPACT™ (Intein Mediated Purification with an Affinity Chitin-binding Tag) Kit (New England BioLabs) was used to express peptides in bacteria to obtain tag-free peptides. The PCR amplicon encoding MRIP peptides were fused in frame to the chitin binding domain of pTYB12 vector utilizing the NdeI/EcoRI restriction sites. The expression vectors for the MYPT1 peptides, CCLR (residues 924–1030), CC (residues 924–990), and LR (residues 991–1030) were constructed as described: In the reference literature, CCLR and LR were named CCLZ and LZ, respectively. Recombinant peptides were produced in Escherichia coli strain BL21 (DE3) and purified using chitin beads according to the manufacturer's protocol. For further purification, the eluent from chitin beads was loaded on a Vydac C8 reversed phase column and subjected to HPLC using an acetonitrile gradient. Purity and identity of the peptides were confirmed by polyacrylamide gel electrophoresis (PAGE) and mass spectrometry. For the mutagenesis study of LR, the wild-type and mutant LR peptides were synthesized, purified by reverse-phase HPLC, and lyophilized to dryness at the peptide core in Boston Biomedical Research Institute.
Sedimentation velocity experiments were done on a Beckman Instruments Optima XL-I analytical ultracentrifuge equipped with Rayleigh optics. The cells were equipped with sapphire windows and 12 mm charcoal-filled Epon centerpieces. Apparent sedimentation coefficient distribution patterns were computed by the time derivative method. Peptides were dialyzed against 50 mM potassium phosphate buffer (pH 7.4) containing 100 mM KCl, and 1 mM DTT at 4°C overnight and then subjected to AUC at 50,000 rpm and 20°C. […]

[2] = target: the molecule itself; assay: AUC; sedimentation velocity of each MRIP peptide alone, three-fold serial dilutions (MRIP^545-878 1.5–13.6 μM, MRIP^724-878 4.7–42.3 μM, MRIP^724-837 7.5–67.1 μM); 50 mM potassium phosphate pH 7.4, 100 mM KCl, 1 mM DTT, 50,000 rpm, 20°C; global fitting with SedAnal; constant of MRIP^724-837: dimer to monomers
[3] = system: CCLR; assay: AUC interaction of MRIP peptides with MYPT1 peptide CCLR (residues 924–1030); type: binding; conditions: equimolar mixtures (MRIP^545-878 14 μM each; MRIP^724-878 30 μM each; MRIP^724-837 67 μM each) and 3-, 9-fold dilutions, pH 7.4, 100 mM KCl, 20°C
Description: AUC was performed to examine the interactions of MRIP^545-878, MRIP^724-878, or MRIP^724-837 individually with the MYPT1 peptide (residues 924–1030) containing a putative coiled coil domain (CC) and the leucine repeat region (LR), designated as CCLR.
Fig 3 All MRIP peptides bind to the C-terminal region of MYPT1, CCLR (residues 924–1030). Concentration-normalized time derivative g(s*) graphs of the MRIP peptides by themselves and in equimolar mixtures: Lines, CCLR (30 μM); +, individual MRIP peptides by themselves (MRIP^545-878, 14 μM; MRIP^724-878, 50 μM; MRIP^724-837, 67 μM); black filled-in circles, original equimolar mixtures (MRIP^545-878, 14 μM each; MRIP^724-878, 30 μM each; MRIP^724-837, 67 μM each); open circles, 3-fold dilutions; gray filled-in circles, 9-fold dilutions.
as §1, with “For the mutagenesis study of LR, the wild-type and mutant LR peptides were synthesized, purified by reverse-phase HPLC, and lyophilized to dryness at the peptide core in Boston Biomedical Research Institute.” left out

[4] = AUC sedimentation velocity of MRIP peptides alone (molar mass, sedimentation coefficient, oligomeric state); type: physicochemical; conditions: for molar mass: 50 mM potassium phosphate pH 7.4, 100 mM KCl, 1 mM DTT; for concentration dependence of g(s*) curves: MRIP^545-878 1.5–13.6 μM, MRIP^724-878 4.7–42.3 μM, MRIP^724-837 7.5–67.1 μM, pH 7.4, 20°C
Description: The RMSD of the fit was 0.008.
as §1
Sedimentation velocity experiments were done on a Beckman Instruments Optima XL-I analytical ultracentrifuge equipped with Rayleigh optics. The cells were equipped with sapphire windows and 12 mm charcoal-filled Epon centerpieces. Apparent sedimentation coefficient distribution patterns were computed by the time derivative method. Peptides were dialyzed against 50 mM potassium phosphate buffer (pH 7.4) containing 100 mM KCl, and 1 mM DTT at 4°C overnight and then subjected to AUC at 50,000 rpm and 20°C. Molar mass was computed from sedimentation velocity profiles using SedAnal, which uses a nonlinear least-squares curve fitting algorithm to fit data to solutions of the differential equation (the Lamm equation) describing sedimentation. Fits were performed on time difference data to remove the time-independent systematic baseline components. Values of s and D produced by the fitting procedure were substituted into the Svedberg equation to obtain the molar mass of the protein, M: M=RT/(1−ν¯ρ)s20,wo/D20,wo where ρ is the density of the buffer and ν¯ is the partial specific volume of the protein. Sednterp was employed to compute values of ρ and ν¯ from the amino acid sequence.

[5] = AUC sedimentation velocity, pH 7.4, 100 mM KCl, 20°C

Molecule: E996K: mutant LR peptide with same length as wild-type, substitutions for charged residues (ERRISKMEEELKMLPDLKADNQRLKDENGALIRVISKLSK)
- main peak position of mixture with MRIP^724-878 [1]: shifted to the right, indicating binding

Molecule: EtriA: mutant LR in which glutamic acid residues 998–1000 were replaced by alanine (ERRISEMAAALKMLPDLKADNQRLKDENGALIRVISKLSK)
- binding affinity toward MRIP^724-878, LR mutants [1]: significantly decreased binding affinity

Molecule: EtriQ: mutant LR in which glutamic acid residues 998–1000 were replaced by glutamine (ERRISEMQQQLKMLPDLKADNQRLKDENGALIRVISKLSK)
- binding affinity toward MRIP^724-878, LR mutants [1]: significantly decreased binding affinity

Molecule: LR^997-1030: mutant LR peptide shorter than LR in length (MEEELKMLPDLKADNQRLKDENGALIRVISKLSK)
- binding affinity toward MRIP^724-878, LR mutants [1]: decreased

Molecule: LR^1001-1030: mutant LR peptide shorter than LR in length (LKMLPDLKADNQRLKDENGALIRVISKLSK)
- binding affinity toward MRIP^724-878, LR mutants [1]: decreased

Molecule: LR^1007-1028: mutant LR peptide shorter than LR in length (LKADNQRLKDENGALIRVISKL)
- binding affinity toward MRIP^724-878, LR mutants [1]: decreased

Molecule: R992D/R993D: mutant LR peptide with same length as wild-type, substitutions for charged residues (EDDISEMEEELKMLPDLKADNQRLKDENGALIRVISKLSK)
- main peak position of mixture with MRIP^724-878 [1]: shifted to the right, indicating binding

B1: MRIP^724-837 (myosin phosphatase-RhoA interacting protein, residues 724–837; CC2-CC3) (domain or fragment, UniProt Q6WCQ1 724-837, looked up)
chain: CERGFAAMEETHQKKIEDLQRQHQRELEKLREEKDRLLAEETAATISAIEAMKNAHREEMERELEKSQRSQISSVNSDVEALRRQYLEELQSVQRELEVLSEQYSQKCLENAHL
notes: Monomer-dimer equilibrium in solution by AUC; source: E. coli BL21 (DE3), purified (chitin beads, C8 reversed-phase HPLC)
- Kd [2]: 21 µM
- stoichiometry N [2]: 2

B2: MRIP^724-837: recombinant tag-free MRIP peptide, residues 724–837; CC2-CC3 (protein)
chain: CERGFAAMEETHQKKIEDLQRQHQRELEKLREEKDRLLAEETAATISAIEAMKNAHREEMERELEKSQRSQISSVNSDVEALRRQYLEELQSVQRELEVLSEQYSQKCLENAHL
modifications: left off: chitin-binding domain (IMPACT kit, pTYB12), N-terminal, cleaved
notes: recombinant tag-free MRIP peptide, residues 724–837; CC2-CC3
- binding to CCLR (shift in g(s*) curves) [3]: bind to CCLR
- molar mass ([4]; AUC sedimentation velocity, SedAnal global fit to monomer-dimer reaction, 7.5–67.1 μM, 20°C, CL 0.95): 13.9±0.2 kDa
- oligomeric state in solution [4, 5]: a mixture of monomer-dimer
- sedimentation coefficient, monomer ([4]; AUC, monomer-dimer model, 7.5–67.1 μM, pH 7.4, 100 mM KCl, 20°C, CL 0.95, min, 1.23, max, 1.31): 1.29 S
- sedimentation coefficient, dimer ([4]; AUC, monomer-dimer model, 7.5–67.1 μM, pH 7.4, 100 mM KCl, 20°C, CL 0.95, min, 1.88, max, 1.91): 1.90 S
- concentration dependence of g(s*) curves ([4]; AUC): concentration dependence and a reversible interaction

B3: MRIP^545-878: recombinant tag-free MRIP peptide, residues 545–878; CC1-CC4 (protein)
chain: WAEFRPIQQALAQERVGGVGPADTHEPLRPEAEPGELERERARRREERRKRFGMLDATDGPGTEDAALRMEVDRSPGLPMSDLKTHNVHVEIEQRWHQVETTPLREEKQVPIAPVHLSSEDGGDRLSTHELTSLLEKELEQSQKEASDLLEQNRLLQDQLRVALGREQSAREGYVLQATCERGFAAMEETHQKKIEDLQRQHQRELEKLREEKDRLLAEETAATISAIEAMKNAHREEMERELEKSQRSQISSVNSDVEALRRQYLEELQSVQRELEVLSEQYSQKCLENAHLAQALEAERQALRQCQRENQELNAHNQELNNRLAAEITRLRT
modifications: left off: chitin-binding domain (IMPACT kit, pTYB12), N-terminal, cleaved
notes: recombinant tag-free MRIP peptide, residues 545–878; CC1-CC4
- binding to CCLR (shift in g(s*) curves) [3]: bind to CCLR
- molar mass ([4]; AUC sedimentation velocity, SedAnal global fit to two components (main component), 1.5–13.6 μM, 50,000 rpm, 20°C, CL 0.95, min, 38.1, max, 40.9): 39.4 kDa
- sedimentation coefficient ([4]; AUC sedimentation velocity, SedAnal global fit, two components (main component), 1.5–13.6 μM, pH 7.4, 100 mM KCl, 20°C, CL 0.95): 2.17±0.01 S
- oligomeric state in solution [4, 5]: forms a monomer in solution
- concentration dependence of g(s*) curves ([4]; AUC): no-concentration dependence and the presence of one species in solution

B4: MRIP^724-878 (myosin phosphatase-RhoA interacting protein, residues 724–878; CC2-CC4) (domain or fragment, UniProt Q6WCQ1 724-878, looked up)
chain: CERGFAAMEETHQKKIEDLQRQHQRELEKLREEKDRLLAEETAATISAIEAMKNAHREEMERELEKSQRSQISSVNSDVEALRRQYLEELQSVQRELEVLSEQYSQKCLENAHLAQALEAERQALRQCQRENQELNAHNQELNNRLAAEITRLRT
notes: Tight homodimer in solution by AUC; the forward primer puts an NdeI ATG before the codons GAGCGAGGGTTTGCAGCAATG; source: E. coli BL21 (DE3), purified (chitin beads, C8 reversed-phase HPLC)
- stoichiometry N [2]: 2
